Source: patent publication US20160319321
Changes are numbered by the printed parent chain. Numbers in names are those of the source. Where “and” joins values, the source holds several entries; their conditions need not be identical. Equal values may be shown once.

How the values were obtained:
[1] = biological target: T1, Lys(Dnp)-NYTDRHAEGT-Lys(Abz)amide
T1 chain: KNYTDRHAEGTK

[2] = biological target: T2, DVKPEQPLYDEGDR-[Arg34]GLP-1(9-37)
T2 chain: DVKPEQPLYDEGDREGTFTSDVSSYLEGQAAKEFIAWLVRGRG

[3] = biological target: T3, Lys(Dnp)-DFGDR-EGTFT-Lys(Abz)amide
T3 chain: KDFGDREGTFTK

[4] = biological target: T4, Lys(Dnp)-EHGDR-HGEGT-Lys(Abz)amide
T4 chain: KEHGDRHGEGTK

[5] = biological target: T5, Lys(Dnp)-FEGDR-HAEGT-Lys(Abz)amide
T5 chain: KFEGDRHAEGTK

[6] = biological target: T6, DVKPGQPEYDDDDK-[Arg34]GLP-1(9-37)
T6 chain: T2 chain with E5G, L8E, E11D, G12D, R14K

[7] = biological target: T7, DVKPGQPLADEGDR-[Arg34]GLP-1(9-37)
T7 chain: T2 chain with E5G, Y9A

[8] = biological target: T8, Lys(Dnp)-EEGDR-HGEGT-Lys(Abz)amide
T8 chain: KEEGDRHGEGTK

[9] = biological target: T9, Lys(Dnp)-DTGDR-HAEGT-Lys(Abz)amide
T9 chain: KDTGDRHAEGTK

[10] = biological target: T10, Lys(Dnp)-HEGDR-HAEGT-Lys(Abz)amide
T10 chain: KHEGDRHAEGTK

[11] = biological target: T11, Lys(Dnp)-EAGDR-EGTFT-Lys(Abz)amide
T11 chain: KEAGDREGTFTK

[12] = biological target: T12, Lys(Dnp)-RDEGDR-HAEGT-Lys(Abz)amide
T12 chain: KRDEGDRHAEGTK

[13] = biological target: T13, Lys(Dnp)-PDEGDR-HAEGT-Lys(Abz)amide
T13 chain: KPDEGDRHAEGTK

[14] = biological target: T14, Lys(Dnp)-DEGDR-HGTFT-Lys(Abz)amide
T14 chain: KDEGDRHGTFTK

[15] = biological target: T15, Lys(Dnp)-EAGDR-HAEGT-Lys(Abz)amide
T15 chain: KEAGDRHAEGTK

[16] = biological target: T16, Lys(Dnp)-YEGDR-HAEGT-Lys(Abz)amide
T16 chain: KYEGDRHAEGTK

[17] = biological target: T17, DVKPGQPLYDDDDK-[Arg34]GLP-1(9-37)
T17 chain: T2 chain with E5G, E11D, G12D, R14K

[18] = biological target: T18, Lys(Dnp)-DHGDR-HGEGT-Lys(Abz)amide
T18 chain: KDHGDRHGEGTK

[19] = biological target: T19, Lys(Dnp)-KDEGDR-HAEGT-Lys(Abz)amide
T19 chain: KKDEGDRHAEGTK

[20] = biological target: T20, Lys(Dnp)-ELGDR-EGTFT-Lys(Abz)amide
T20 chain: KELGDREGTFTK

[21] = biological target: T21, Lys(Dnp)-EHGDR-EGTFT-Lys(Abz)amide
T21 chain: KEHGDREGTFTK

[22] = biological target: T22, Lys(Dnp)-EDGDR-HAEGT-Lys(Abz)amide
T22 chain: KEDGDRHAEGTK

[23] = biological target: T23, Lys(Dnp)-DEGDR-HSQGT-Lys(Abz)amide
T23 chain: KDEGDRHSQGTK

[24] = biological target: T24, DVKPGQELYDEGDR-[Arg34]GLP-1(9-37)
T24 chain: T2 chain with E5G, P7E

[25] = biological target: T25, Lys(Dnp)-DSGDR-HAEGT-Lys(Abz)amide
T25 chain: KDSGDRHAEGTK

[26] = biological target: T26, Lys(Dnp)-AEGDR-HAEGT-Lys(Abz)amide
T26 chain: XAEGDRHAEGTX

[27] = biological target: T27, Lys(Dnp)-DLGDR-EGTFT-Lys(Abz)amide
T27 chain: KDLGDREGTFTK

[28] = biological target: T28, Lys(Dnp)-IDEGDR-HAEGT-Lys(Abz)amide
T28 chain: KIDEGDRHAEGTK

[29] = biological target: T29, Lys(Dnp)-EQGDR-HGEGT-Lys(Abz)amide
T29 chain: KEQGDRHGEGTK

[30] = biological target: T30, Lys(Dnp)-DHGDR-EGTFT-Lys(Abz)amide
T30 chain: KDHGDREGTFTK

[31] = biological target: T31, Lys(Dnp)-DDGDR-HGEGT-Lys(Abz)amide
T31 chain: KDDGDRHGEGTK

[32] = biological target: T32, Lys(Dnp)-DQGDR-HGEGT-Lys(Abz)amide
T32 chain: KDQGDRHGEGTK

[33] = biological target: T33, Lys(Dnp)-ESGDR-HGEGT-Lys(Abz)amide
T33 chain: KESGDRHGEGTK

[34] = biological target: T34, Lys(Dnp)-PEGDR-HAEGT-Lys(Abz)amide
T34 chain: KPEGDRHAEGTK

[35] = biological target: T35, Lys(Dnp)-EQGDR-EGTFT-Lys(Abz)amide
T35 chain: KEQGDREGTFTK

[36] = biological target: T36, DVKPGQPLADDDDK-[Arg34]GLP-1(9-37)
T36 chain: T2 chain with E5G, Y9A, E11D, G12D, R14K

[37] = biological target: T37, Lys(Dnp)-DQGDR-EGTFT-Lys(Abz)amide
T37 chain: KDQGDREGTFTK

[38] = biological target: T38, Lys(Dnp)-SDEGDR-HAEGT-Lys(Abz)amide
T38 chain: KSDEGDRHAEGTK

[39] = biological target: T39, Lys(Dnp)-DLGDR-QGTFT-Lys(Abz)amide
T39 chain: KDLGDRQGTFTK

[40] = biological target: T40, Lys(Dnp)-LEGDR-HAEGT-Lys(Abz)amide
T40 chain: KLEGDRHAEGTK

[41] = biological target: T41, Lys(Dnp)-QEGDR-EGTFT-Lys(Abz)amide
T41 chain: KQEGDREGTFTK

B1: bovine Enterokinase light chain variant (C112A, L134K, I135K) (protein)
chain: IVGGSDSREGAWPWVVALYFDDQQVCGASLVSRDWLVSAAHCVYGRNMEPSKWKAVLGLHMASNLTSPQIETRLIDQIVINPHYNKRRKNNDIAMMHLEMKVNYTDYIQPIALPEENQVFPPGRICSIAGWGAKKYQGSTADVLQEADVPLLSNEKCQQQMPEYNITENMVCAGYEAGGVDSCQGDSGGPLMCQENNRWLLAGVTSFGYQCALPNRPGVYARVPRFTEWIQSFLH
- Activity (%) [1]: 59%
- Activity (%) [2]: 803%
- Activity (%) [3]: 419%
- Activity (%) [4]: 491%
- Activity (%) [5]: 397%
- Activity (%) [6]: 158%
- Activity (%) [7]: 476%
- Activity (%) [8]: 641%
- Activity (%) [9]: 434%
- Activity (%) [10]: 468%
- Activity (%) [11]: 355%
- Activity (%) [12]: 222%
- Activity (%) [13]: 194%
- Activity (%) [14]: 392%
- Activity (%) [15]: 582%
- Activity (%) [16]: 377%
- Activity (%) [17]: 136%
- Activity (%) [18]: 526%
- Activity (%) [19]: 175%
- Activity (%) [20]: 396%
- Activity (%) [21]: 339%
- Activity (%) [22]: 632%
- Activity (%) [23]: 621%
- Activity (%) [24]: 1040%
- Activity (%) [25]: 504% and 380%
- Activity (%) [26]: 382%
- Activity (%) [27]: 438%
- Activity (%) [28]: 283%
- Activity (%) [29]: 432%
- Activity (%) [30]: 398%
- Activity (%) [31]: 439%
- Activity (%) [32]: 467%
- Activity (%) [33]: 221%
- Activity (%) [34]: 441%
- Activity (%) [35]: 442%
- Activity (%) [36]: 134%
- Activity (%) [37]: 412%
- Activity (%) [38]: 222%
- Activity (%) [39]: 222%
- Activity (%) [40]: 398%
- Activity (%) [41]: 411%
